System: Escherichia coli TOP10
Test: shrunken log2 fold change of peptide-encoding DNA abundance (4.5 h post-induction vs induction); higher = less antimicrobial activity (less host growth inhibition)
Conditions: time post-induction: 4.5 h; library: site-saturation at positions 5, 18, 19, 20
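Further: peptides expressed intracellularly from a pBAD plasmid library in pooled LB shake-flask culture, induced with 0.3% L-arabinose, DNA abundance read by NGS, three biological replicates, DESeq2 with apeglm shrinkage.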

Sequence	shrunken log2 fold change
RRIRLRPPRLPRPRPRPFRKPRP	0.0823
RRIRKRPPRLPRPRPRPGMVPRP	0.8
RRIRKRPPRLPRPRPRPRSEPRP	-0.00081
RRIRWRPPRLPRPRPRPQHYPRP	-0.574
RRIRGRPPRLPRPRPRPGNDPRP	0.381
RRIRFRPPRLPRPRPRPAEMPRP	0.00299
RRIRDRPPRLPRPRPRPGYCPRP	-0.658
RRIRVRPPRLPRPRPRPHNIPRP	-0.392
RRIRPRPPRLPRPRPRPYPDPRP	-0.145
RRIRLRPPRLPRPRPRPFMHPRP	-0.326
RRIRMRPPRLPRPRPRPPCRPRP	0.584
RRIRFRPPRLPRPRPRPYCKPRP	-0.243
RRIRYRPPRLPRPRPRPAEFPRP	-0.266
RRIRYRPPRLPRPRPRPQWRPRP	0.0697
RRIRDRPPRLPRPRPRPQGPPRP	0.0365
RRIRYRPPRLPRPRPRPRLDPRP	-0.176
RRIRHRPPRLPRPRPRPCPQPRP	-0.195
RRIRLRPPRLPRPRPRPLTEPRP	0.098
RRIRLRPPRLPRPRPRPPHPPRP	0.404
RRIRMRPPRLPRPRPRPASTPRP	0.323
RRIRQRPPRLPRPRPRPWMMPRP	0.0873
RRIRERPPRLPRPRPRPVDWPRP	0.0136

Sequence	shrunken log2 fold change
RRIRQRPPRLPRPRPRPFDCPRP	-0.408
RRIRKRPPRLPRPRPRPTVYPRP	-0.0794
RRIRQRPPRLPRPRPRPCLCPRP	-0.294
RRIRTRPPRLPRPRPRPMYAPRP	-0.121
RRIRSRPPRLPRPRPRPCKYPRP	-0.0911
RRIRDRPPRLPRPRPRPRPMPRP	0.583
RRIRTRPPRLPRPRPRPHLCPRP	-0.17
RRIRMRPPRLPRPRPRPAGAPRP	1.28
RRIRARPPRLPRPRPRPQMHPRP	1.05
RRIRQRPPRLPRPRPRPMMVPRP	-0.0145
RRIRSRPPRLPRPRPRPQYAPRP	-0.282
RRIRCRPPRLPRPRPRPDMYPRP	-0.561
RRIRSRPPRLPRPRPRPQPNPRP	-0.00561
RRIRWRPPRLPRPRPRPTRLPRP	0.411
RRIRYRPPRLPRPRPRPRNRPRP	-0.0543
RRIRNRPPRLPRPRPRPAHVPRP	-0.0508
RRIRCRPPRLPRPRPRPKRGPRP	0.27
RRIRVRPPRLPRPRPRPAEMPRP	0.0714
RRIRPRPPRLPRPRPRPGNIPRP	-0.000778
RRIRTRPPRLPRPRPRPLNHPRP	-0.204
RRIRGRPPRLPRPRPRPFNTPRP	-0.309
RRIRERPPRLPRPRPRPEPCPRP	-0.148

Sequence	shrunken log2 fold change
RRIRGRPPRLPRPRPRPMIRPRP	0.147
RRIRCRPPRLPRPRPRPIMLPRP	-0.587
RRIRKRPPRLPRPRPRPFPFPRP	-0.255
RRIRHRPPRLPRPRPRPHNNPRP	-0.714
RRIRQRPPRLPRPRPRPQCRPRP	0.0527
RRIRWRPPRLPRPRPRPYWIPRP	-0.81
RRIRHRPPRLPRPRPRPAQVPRP	-0.0333
RRIRKRPPRLPRPRPRPEEIPRP	0.00253
RRIRSRPPRLPRPRPRPAIYPRP	-1.04
RRIRHRPPRLPRPRPRPCIPPRP	-0.809
RRIRHRPPRLPRPRPRPRVAPRP	0.395
RRIRGRPPRLPRPRPRPPAHPRP	1.02
RRIRQRPPRLPRPRPRPIFQPRP	-0.269
RRIRYRPPRLPRPRPRPSFKPRP	-0.806
RRIRVRPPRLPRPRPRPGIWPRP	0.339
RRIRDRPPRLPRPRPRPVIQPRP	0.474
RRIRDRPPRLPRPRPRPMNWPRP	0.0175
RRIRYRPPRLPRPRPRPQKKPRP	0.0261
RRIRLRPPRLPRPRPRPEMEPRP	-0.0177
RRIRDRPPRLPRPRPRPWMNPRP	-0.15
RRIRWRPPRLPRPRPRPDQNPRP	-0.0342
RRIRYRPPRLPRPRPRPGMFPRP	-0.524

Sequence	shrunken log2 fold change
RRIRHRPPRLPRPRPRPDFVPRP	-0.242
RRIRKRPPRLPRPRPRPHDDPRP	0.171
RRIRNRPPRLPRPRPRPMNKPRP	0.0642
RRIRHRPPRLPRPRPRPEKDPRP	-0.0422
RRIRGRPPRLPRPRPRPSTYPRP	-0.189
RRIRYRPPRLPRPRPRPDTIPRP	-0.145
RRIRIRPPRLPRPRPRPNTHPRP	-0.677
RRIRDRPPRLPRPRPRPHSMPRP	-0.293
RRIRMRPPRLPRPRPRPKNLPRP	-0.102
RRIRLRPPRLPRPRPRPVKGPRP	-0.00152
RRIRRRPPRLPRPRPRPENGPRP	0.401
RRIRGRPPRLPRPRPRPYKMPRP	-0.234
RRIRKRPPRLPRPRPRPGFKPRP	-0.0198
RRIRARPPRLPRPRPRPTEPPRP	0.797
RRIRQRPPRLPRPRPRPWAKPRP	-0.000896
RRIRIRPPRLPRPRPRPEPRPRP	0.563
RRIRRRPPRLPRPRPRPDWKPRP	0.192
RRIRERPPRLPRPRPRPIAAPRP	0.466
RRIRVRPPRLPRPRPRPNHDPRP	-0.369
RRIRQRPPRLPRPRPRPEAMPRP	0.00408
RRIRSRPPRLPRPRPRPIANPRP	-0.0897
RRIRDRPPRLPRPRPRPCYSPRP	-0.0729

Sequence	shrunken log2 fold change
RRIRARPPRLPRPRPRPERLPRP	0.23
RRIRDRPPRLPRPRPRPRSTPRP	-0.00371
RRIRLRPPRLPRPRPRPKGFPRP	-0.109
RRIRYRPPRLPRPRPRPWNNPRP	-0.656
RRIRYRPPRLPRPRPRPLWTPRP	-0.563
RRIRFRPPRLPRPRPRPFTFPRP	-0.41
RRIRFRPPRLPRPRPRPGRCPRP	0.259
RRIRHRPPRLPRPRPRPYNSPRP	0.0224
RRIRSRPPRLPRPRPRPQAYPRP	0.0251
RRIRFRPPRLPRPRPRPSIKPRP	-0.42
RRIRKRPPRLPRPRPRPRNMPRP	-0.162
RRIRERPPRLPRPRPRPHCDPRP	0.023
RRIRIRPPRLPRPRPRPDPVPRP	-0.0546
RRIRIRPPRLPRPRPRPVQHPRP	-0.38
RRIRVRPPRLPRPRPRPLSHPRP	-0.32
RRIRMRPPRLPRPRPRPLACPRP	0.244
RRIRKRPPRLPRPRPRPHIGPRP	-0.0664
RRIRKRPPRLPRPRPRPGLNPRP	0.0896
RRIRIRPPRLPRPRPRPGFEPRP	3.71
RRIRARPPRLPRPRPRPTEQPRP	0.184
RRIRWRPPRLPRPRPRPMRLPRP	0.905

— the supplement of paper PMC9112550, “Optimization of the antimicrobial peptide Bac7 by deep mutational scanning” (BMC Biology, 2022)
